Tested on: Escherichia coli TOP10
Assay: shrunken log2 fold change of peptide-encoding DNA abundance (4.5 h post-induction vs induction); higher = less antimicrobial activity (less host growth inhibition)
Details: time post-induction: 4.5 h; library: site-saturation at positions 5, 18, 19, 20
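Further: peptides expressed intracellularly from a pBAD plasmid library in pooled LB shake-flask culture, induced with 0.3% L-arabinose, DNA abundance read by NGS, three biological replicates, DESeq2 with apeglm shrinkage.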

Row | Sequence | shrunken log2 fold change
1 | RRIRLRPPRLPRPRPRPKCWPRP | 0.323
2 | RRIRRRPPRLPRPRPRPSCLPRP | -0.172
3 | RRIRERPPRLPRPRPRPMKSPRP | -0.163
4 | RRIRCRPPRLPRPRPRPLQTPRP | 0.443
5 | RRIRERPPRLPRPRPRPECMPRP | -0.0491
6 | RRIRGRPPRLPRPRPRPDWAPRP | 1.22
7 | RRIRHRPPRLPRPRPRPFETPRP | 0.0877
8 | RRIRFRPPRLPRPRPRPHSDPRP | -0.129
9 | RRIRPRPPRLPRPRPRPCVVPRP | 1.73
10 | RRIRDRPPRLPRPRPRPLKKPRP | 0.31
11 | RRIRRRPPRLPRPRPRPTDYPRP | -0.00271
12 | RRIRYRPPRLPRPRPRPPQAPRP | 0.114
13 | RRIRCRPPRLPRPRPRPENYPRP | -0.474
14 | RRIRLRPPRLPRPRPRPYQRPRP | -0.393
15 | RRIRWRPPRLPRPRPRPNLQPRP | 0.0402
16 | RRIRFRPPRLPRPRPRPPEMPRP | 0.0471
17 | RRIRIRPPRLPRPRPRPALFPRP | -0.139
18 | RRIRCRPPRLPRPRPRPMIQPRP | -0.417
19 | RRIRGRPPRLPRPRPRPMAEPRP | 1.73
20 | RRIRMRPPRLPRPRPRPVYHPRP | -0.435
21 | RRIRDRPPRLPRPRPRPWVKPRP | 0.0766
22 | RRIRWRPPRLPRPRPRPILDPRP | 0.187
23 | RRIRCRPPRLPRPRPRPKSGPRP | 0.017
24 | RRIRCRPPRLPRPRPRPGIVPRP | -0.0688
25 | RRIRMRPPRLPRPRPRPHFKPRP | -0.0841

Row | Sequence | shrunken log2 fold change
26 | RRIRPRPPRLPRPRPRPMAIPRP | -0.0296
27 | RRIRDRPPRLPRPRPRPYVMPRP | -0.342
28 | RRIRPRPPRLPRPRPRPNFWPRP | 0.153
29 | RRIRHRPPRLPRPRPRPNWYPRP | -0.928
30 | RRIRRRPPRLPRPRPRPHPMPRP | 0.144
31 | RRIRKRPPRLPRPRPRPCVTPRP | 0.0632
32 | RRIRYRPPRLPRPRPRPIYFPRP | 0.548
33 | RRIRTRPPRLPRPRPRPPVEPRP | 0.0458
34 | RRIRCRPPRLPRPRPRPTGQPRP | 0.123
35 | RRIRNRPPRLPRPRPRPWQSPRP | -0.0702
36 | RRIRLRPPRLPRPRPRPMTTPRP | 0.0748
37 | RRIRERPPRLPRPRPRPIYAPRP | -0.086
38 | RRIRPRPPRLPRPRPRPFPTPRP | -0.189
39 | RRIRCRPPRLPRPRPRPPNRPRP | 0.444
40 | RRIRVRPPRLPRPRPRPFDTPRP | -0.847
41 | RRIRRRPPRLPRPRPRPLRPPRP | 1.18
42 | RRIRCRPPRLPRPRPRPVECPRP | -0.142
43 | RRIRKRPPRLPRPRPRPSWKPRP | 0.0521
44 | RRIRERPPRLPRPRPRPRALPRP | 0.0317
45 | RRIRPRPPRLPRPRPRPDKFPRP | -0.233
46 | RRIRYRPPRLPRPRPRPERIPRP | -0.21
47 | RRIRWRPPRLPRPRPRPWDKPRP | -0.0732
48 | RRIRNRPPRLPRPRPRPIRFPRP | -0.0225
49 | RRIRVRPPRLPRPRPRPWRRPRP | 0.208
50 | RRIRMRPPRLPRPRPRPNTTPRP | 0.191

Row | Sequence | shrunken log2 fold change
51 | RRIRHRPPRLPRPRPRPIWYPRP | -0.75
52 | RRIRCRPPRLPRPRPRPPIPPRP | 0.31
53 | RRIRYRPPRLPRPRPRPHISPRP | -0.317
54 | RRIRKRPPRLPRPRPRPFRYPRP | -0.0832
55 | RRIRLRPPRLPRPRPRPNGEPRP | 0.00184
56 | RRIRSRPPRLPRPRPRPVQHPRP | -0.0389
57 | RRIRQRPPRLPRPRPRPHNWPRP | -0.311
58 | RRIRVRPPRLPRPRPRPSLIPRP | -0.238
59 | RRIRTRPPRLPRPRPRPLHEPRP | -0.191
60 | RRIRGRPPRLPRPRPRPRDTPRP | 0.649
61 | RRIRFRPPRLPRPRPRPGQCPRP | -0.114
62 | RRIRDRPPRLPRPRPRPGMRPRP | 1.02
63 | RRIRMRPPRLPRPRPRPVRPPRP | 1.76
64 | RRIRARPPRLPRPRPRPWKNPRP | -0.145
65 | RRIRQRPPRLPRPRPRPWWMPRP | -0.0322
66 | RRIRFRPPRLPRPRPRPSIHPRP | -0.84
67 | RRIRMRPPRLPRPRPRPGARPRP | 1.11
68 | RRIRFRPPRLPRPRPRPINPPRP | -1.08
69 | RRIRSRPPRLPRPRPRPEGFPRP | 0.272
70 | RRIRQRPPRLPRPRPRPLLPPRP | 0.0127
71 | RRIRTRPPRLPRPRPRPYLQPRP | -0.525
72 | RRIRRRPPRLPRPRPRPARPPRP | 0.703
73 | RRIRQRPPRLPRPRPRPVCGPRP | 0.205
74 | RRIRNRPPRLPRPRPRPYGPPRP | -0.00663
75 | RRIRPRPPRLPRPRPRPHRLPRP | -0.0226

Row | Sequence | shrunken log2 fold change
76 | RRIRPRPPRLPRPRPRPKSEPRP | 0.197
77 | RRIRYRPPRLPRPRPRPLKIPRP | -0.134
78 | RRIRERPPRLPRPRPRPRRSPRP | -0.021
79 | RRIRWRPPRLPRPRPRPRFKPRP | 0.0187
80 | RRIRPRPPRLPRPRPRPKPYPRP | -0.0782
81 | RRIRIRPPRLPRPRPRPDIVPRP | -0.906
82 | RRIRHRPPRLPRPRPRPYWHPRP | -0.666
83 | RRIRERPPRLPRPRPRPPWAPRP | 0.176
84 | RRIRGRPPRLPRPRPRPMLPPRP | 0.242
85 | RRIRSRPPRLPRPRPRPDFPPRP | 0.0768
86 | RRIRNRPPRLPRPRPRPKNIPRP | -0.483
87 | RRIRSRPPRLPRPRPRPNWVPRP | -0.214
88 | RRIRYRPPRLPRPRPRPGLQPRP | -0.0156
89 | RRIRYRPPRLPRPRPRPLWEPRP | -0.369
90 | RRIRHRPPRLPRPRPRPGNQPRP | 0.0401
91 | RRIRNRPPRLPRPRPRPARWPRP | 0.531
92 | RRIRFRPPRLPRPRPRPQSIPRP | 0.0159
93 | RRIRMRPPRLPRPRPRPGIHPRP | 0.142
94 | RRIRPRPPRLPRPRPRPEYDPRP | 0.101
95 | RRIRWRPPRLPRPRPRPDPFPRP | -0.0639
96 | RRIRTRPPRLPRPRPRPHWTPRP | -0.0902
97 | RRIRRRPPRLPRPRPRPYYKPRP | -0.677
98 | RRIRFRPPRLPRPRPRPNSKPRP | -0.464
99 | RRIRYRPPRLPRPRPRPRESPRP | 0.0662
100 | RRIRCRPPRLPRPRPRPMCIPRP | -0.146

Row | Sequence | shrunken log2 fold change
101 | RRIRMRPPRLPRPRPRPTITPRP | 0.114
102 | RRIRIRPPRLPRPRPRPMFGPRP | -0.0865
103 | RRIRRRPPRLPRPRPRPLILPRP | 0.0353
104 | RRIRERPPRLPRPRPRPFAYPRP | 0.155
105 | RRIRYRPPRLPRPRPRPTPLPRP | 0.0136
106 | RRIRARPPRLPRPRPRPGERPRP | 0.56
107 | RRIRTRPPRLPRPRPRPTGAPRP | 0.323
108 | RRIRWRPPRLPRPRPRPEISPRP | -0.161
109 | RRIRFRPPRLPRPRPRPCQKPRP | 0.033
110 | RRIRGRPPRLPRPRPRPPKGPRP | 0.673
111 | RRIRIRPPRLPRPRPRPHIQPRP | -0.791
112 | RRIRVRPPRLPRPRPRPKLYPRP | -0.0874
113 | RRIRMRPPRLPRPRPRPQAEPRP | 3.28
114 | RRIRRRPPRLPRPRPRPRNHPRP | -0.0441
115 | RRIRCRPPRLPRPRPRPWWVPRP | -0.208
116 | RRIRYRPPRLPRPRPRPMIIPRP | -0.138
117 | RRIRARPPRLPRPRPRPFTFPRP | -0.0365
118 | RRIRHRPPRLPRPRPRPPVPPRP | 0.441
119 | RRIRCRPPRLPRPRPRPWSQPRP | -0.0595
120 | RRIRIRPPRLPRPRPRPINDPRP | -0.657
121 | RRIRGRPPRLPRPRPRPMAFPRP | 0.572
122 | RRIRFRPPRLPRPRPRPWRNPRP | -0.133
123 | RRIRPRPPRLPRPRPRPVYHPRP | -0.388
124 | RRIRVRPPRLPRPRPRPTQCPRP | -0.0227
125 | RRIRKRPPRLPRPRPRPQHCPRP | -0.0588

Row | Sequence | shrunken log2 fold change
126 | RRIRIRPPRLPRPRPRPIFKPRP | -0.226
127 | RRIRKRPPRLPRPRPRPDHIPRP | -0.0249
128 | RRIRRRPPRLPRPRPRPTLNPRP | 0.511
129 | RRIRERPPRLPRPRPRPQKRPRP | 0.462
130 | RRIRCRPPRLPRPRPRPFTVPRP | -0.456
131 | RRIRERPPRLPRPRPRPRAGPRP | 0.459
132 | RRIRMRPPRLPRPRPRPRTPPRP | 1.26
133 | RRIRARPPRLPRPRPRPDWHPRP | 0.136
134 | RRIRTRPPRLPRPRPRPAVCPRP | 0.712
135 | RRIRRRPPRLPRPRPRPTRLPRP | 0.612
136 | RRIRNRPPRLPRPRPRPTIHPRP | -0.46
137 | RRIRGRPPRLPRPRPRPFSHPRP | -0.153
138 | RRIRRRPPRLPRPRPRPYHGPRP | -0.169
139 | RRIRNRPPRLPRPRPRPTKQPRP | -0.102
140 | RRIRVRPPRLPRPRPRPDCPPRP | -0.104
141 | RRIRWRPPRLPRPRPRPSRCPRP | 0.0613
142 | RRIRARPPRLPRPRPRPSRIPRP | 0.163
143 | RRIRWRPPRLPRPRPRPEPQPRP | 0.818
144 | RRIRCRPPRLPRPRPRPFDRPRP | -0.115
145 | RRIRHRPPRLPRPRPRPCMSPRP | 0.12
146 | RRIRFRPPRLPRPRPRPYTPPRP | -1.28
147 | RRIRDRPPRLPRPRPRPIMTPRP | 0.107
148 | RRIRFRPPRLPRPRPRPRCEPRP | -0.0311
149 | RRIRYRPPRLPRPRPRPYIVPRP | -0.496
150 | RRIRKRPPRLPRPRPRPFHVPRP | -0.265

Reference: the supplement of paper PMC9112550, “Optimization of the antimicrobial peptide Bac7 by deep mutational scanning” (BMC Biology, 2022)
